Patent publication US20110250133A1, “GASTRIN […] PEPTIDE COMPOUNDS” (priority 2003, published 2011)
pKd: −log10 of the molar value.

Assays:
[1] = breast cancer patients; cited from earlier work
[2] = molecular target: gastrin releasing peptide receptor (GRP-R) (human) (UniProt P30550); test: saturation binding on PC-3 cells
[3] = molecular target: human bombesin receptor subtype 3 (BB3-R) (human) (UniProt P32247); test: receptor autoradiography with 177Lu-L70
[4] = molecular target: mouse GRP-R (mouse) (UniProt P21729); test: receptor autoradiography with 177Lu-L70
[5] = molecular target: human neuromedin-B preferring receptor (NMB-R) (human) (UniProt P28336); test: receptor autoradiography with 177Lu-L70
[6] = molecular target: gastrin releasing peptide receptor (GRP-R) (human) (UniProt P30550); test: receptor autoradiography with 177Lu-L70

gastrin releasing peptide receptor (GRP-R) (human), sequence (P30550 whole entry): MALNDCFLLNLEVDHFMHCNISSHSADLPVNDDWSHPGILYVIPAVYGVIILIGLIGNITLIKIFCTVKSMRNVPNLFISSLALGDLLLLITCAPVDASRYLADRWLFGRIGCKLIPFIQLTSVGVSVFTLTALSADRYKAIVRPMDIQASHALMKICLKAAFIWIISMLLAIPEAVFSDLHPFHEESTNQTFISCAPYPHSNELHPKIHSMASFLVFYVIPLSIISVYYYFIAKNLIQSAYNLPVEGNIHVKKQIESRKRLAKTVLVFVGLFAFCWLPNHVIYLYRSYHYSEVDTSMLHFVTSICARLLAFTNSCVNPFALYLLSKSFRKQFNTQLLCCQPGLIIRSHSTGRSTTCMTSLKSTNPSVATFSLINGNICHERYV
human bombesin receptor subtype 3 (BB3-R) (human), sequence (P32247 whole entry): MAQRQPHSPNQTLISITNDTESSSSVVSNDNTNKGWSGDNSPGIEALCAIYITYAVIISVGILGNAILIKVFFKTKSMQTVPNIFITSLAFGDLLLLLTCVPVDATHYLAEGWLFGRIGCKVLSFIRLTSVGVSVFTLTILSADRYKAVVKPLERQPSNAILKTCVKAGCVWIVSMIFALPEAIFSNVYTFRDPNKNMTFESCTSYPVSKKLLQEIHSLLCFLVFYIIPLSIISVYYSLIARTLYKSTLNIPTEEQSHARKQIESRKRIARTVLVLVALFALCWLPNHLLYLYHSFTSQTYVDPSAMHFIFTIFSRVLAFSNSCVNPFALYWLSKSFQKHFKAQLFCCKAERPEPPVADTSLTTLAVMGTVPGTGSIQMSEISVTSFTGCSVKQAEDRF
mouse GRP-R (mouse), sequence (P21729 whole entry): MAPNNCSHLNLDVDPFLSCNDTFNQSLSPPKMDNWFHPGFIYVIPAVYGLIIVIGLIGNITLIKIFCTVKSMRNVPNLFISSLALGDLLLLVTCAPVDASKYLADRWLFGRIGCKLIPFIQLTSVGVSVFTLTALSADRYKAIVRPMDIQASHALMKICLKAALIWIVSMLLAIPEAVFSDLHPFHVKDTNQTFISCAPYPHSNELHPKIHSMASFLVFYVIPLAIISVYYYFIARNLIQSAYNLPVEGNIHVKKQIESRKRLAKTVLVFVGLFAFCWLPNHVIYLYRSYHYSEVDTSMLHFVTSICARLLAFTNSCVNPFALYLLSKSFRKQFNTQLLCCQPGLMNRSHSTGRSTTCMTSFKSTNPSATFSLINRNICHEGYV
human neuromedin-B preferring receptor (NMB-R) (human), sequence (P28336 whole entry): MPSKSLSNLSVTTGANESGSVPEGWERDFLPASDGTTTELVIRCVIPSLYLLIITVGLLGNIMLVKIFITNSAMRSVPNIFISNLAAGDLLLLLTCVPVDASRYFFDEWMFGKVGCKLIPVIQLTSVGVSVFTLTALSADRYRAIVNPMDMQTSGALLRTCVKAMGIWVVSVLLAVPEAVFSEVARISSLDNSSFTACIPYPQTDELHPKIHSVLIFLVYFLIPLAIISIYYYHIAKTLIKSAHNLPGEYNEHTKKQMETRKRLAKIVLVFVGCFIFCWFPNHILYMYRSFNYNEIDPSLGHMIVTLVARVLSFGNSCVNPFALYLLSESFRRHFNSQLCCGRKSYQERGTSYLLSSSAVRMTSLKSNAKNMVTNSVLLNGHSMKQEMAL

Substance | overall response [1] [%] | Binding capacity (Bmax) (fmoles/1 × 10^6 cells) [2] | pKd [2] | Receptors/cell (receptors/cell) [2] | tissues labelled / tissues tested (of 6 (Bronchial carcinoid)) [3] | tissues labelled / tissues tested (of 4 (Mouse pancreas, acini)) [4] | tissues labelled / tissues tested (of 8 (Ileal carcinoid)) [5] | tissues labelled / tissues tested (of 4 (Prostate Ca)) [6] | tissues labelled / tissues tested (of 5 (Chronic pancreatitis, acini)) [6] | tissues labelled / tissues tested (of 6 (Bronchial carcinoid)) [6] | tissues labelled / tissues tested (of 6 (Renal Ca)) [6] | tissues labelled / tissues tested (of 7 (Colon Ca, smooth muscle)) [6] | tissues labelled / tissues tested (of 7 (Colon Ca, tumor)) [6] | tissues labelled / tissues tested (of 7 (Human pancreas, acini)) [6] | tissues labelled / tissues tested (of 8 (Mammary Ca)) [6]
Herceptin® | 9 |  |  |  |  |  |  |  |  |  |  |  |  |  | 
177Lu-L70 (peptide) |  | 408 | 9.36 | 245000 | 0 | 4 | 8 | 4 | 5 | 2 | 5 | 7 | 3 | 1 | 8
